In test [1] the target is DTX3L D1 domain (human). The test can be described thus: cross-linking.
The target of test [2] is DTX3L D2 domain (human). In words: cross-linking.

These results are taken from publication doi:10.1101/2021.06.14.448324.

In general, stoichiometry N refers to a count of units in the complex or per binding partner.

With DTX3L D1 domain (domain or fragment), the stoichiometry N in test [1] was 2. DTX3L D2 domain (domain or fragment): the stoichiometry N in test [2] came to 4.
